Source: article PMC11282955
pKd: −log10 of the molar value.

Biological target: human angiotensin-converting enzyme 2 (hACE2) (UniProt Q9BYF1)
Assay: SPR
Conditions: parent: est. 1.5 nM; read off a plot

Row | Substance | pKd
1 | BA.2.86 spike receptor-binding domain (RBD) D450N | 9.28
2 | BA.2.86 spike receptor-binding domain (RBD) H445V | 9.34
3 | BA.2.86 spike receptor-binding domain (RBD) H505Y | 9.24
4 | BA.2.86 spike receptor-binding domain (RBD) K403R | 9.00
5 | BA.2.86 spike receptor-binding domain (RBD) K481N | 9.18
6 | BA.2.86 spike receptor-binding domain (RBD) K484A | 8.92
7 | BA.2.86 spike receptor-binding domain (RBD) L455F; F456L | 9.10
8 | BA.2.86 spike receptor-binding domain (RBD) L455S | 8.37
9 | BA.2.86 spike receptor-binding domain (RBD) N354Q | 8.80
10 | BA.2.86 spike receptor-binding domain (RBD) N417K | 9.21
11 | BA.2.86 spike receptor-binding domain (RBD) N417K; H505Y | 9.57
12 | BA.2.86 spike receptor-binding domain (RBD) N417K; H505Y; L455F; F456L | 9.28
13 | BA.2.86 spike receptor-binding domain (RBD) P486F | 9.41
14 | BA.2.86 spike receptor-binding domain (RBD) W452L | 9.24
15 | BA.2.86 spike receptor-binding domain (RBD) ins483V | 9.06
